In IntAct's records for PubMed 20952388:

B1: Ethylene receptor 1 (Arabidopsis thaliana (Mouse-ear cress)), P49333 (parent)
chain: MEVCNCIEPQWPADELLMKYQYISDFFIAIAYFSIPLELIYFVKKSAVFPYRWVLVQFGAFIVLCGATHLINLWTFTTHSRTVALVMTTAKVLTAVVSCATALMLVHIIPDLLSVKTRELFLKNKAAELDREMGLIRTQEETGRHVRMLTHEIRSTLDRHTILKTTLVELGRTLALEECALWMPTRTGLELQLSYTLRHQHPVEYTVPIQLPVINQVFGTSRAVKISPNSPVARLRPVSGKYMLGEVVAVRVPLLHLSNFQINDWPELSTKRYALMVLMLPSDSARQWHVHELELVEVVADQVAVALSHAAILEESMRARDLLMEQNVALDLARREAETAIRARNDFLAVMNHEMRTPMHAIIALSSLLQETELTPEQRLMVETILKSSNLLATLMNDVLDLSRLEDGSLQLELGTFNLHTLFREVLNLIKPIAVVKKLPITLNLAPDLPEFVVGDEKRLMQIILNIVGNAVKFSKQGSISVTALVTKSDTRAADFFVVPTGSHFYLRVKVKDSGAGINPQDIPKIFTKFAQTQSLATRSSGGSGLGLAISKRFVNLMEGNIWIESDGLGKGCTAIFDVKLGISERSNESKQSGIPKVPAIPRHSNFTGLKVLVMDENGVSRMVTKGLLVHLGCEVTTVSSNEECLRVVSHEHKVVFMDVCMPGVENYQIALRIHEKFTKQRHQRPLLVALSGNTDKSTKEKCMSFGLDGVLLKPVSLDNIRDVLSDLLEPRVLYEGM
partner: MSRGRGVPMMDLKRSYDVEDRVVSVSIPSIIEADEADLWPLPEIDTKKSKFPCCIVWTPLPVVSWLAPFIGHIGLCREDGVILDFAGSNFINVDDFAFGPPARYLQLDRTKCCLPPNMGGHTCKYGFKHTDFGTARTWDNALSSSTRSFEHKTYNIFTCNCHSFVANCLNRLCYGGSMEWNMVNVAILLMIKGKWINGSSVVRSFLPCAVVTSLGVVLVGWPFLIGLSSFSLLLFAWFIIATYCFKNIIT

Variants of: B1
Settings: with rte1_arath RTE1, F4ITL6

effect of a mutation on the interaction	Variant
decreasing interaction	C65W
decreasing interaction	A102T
